# Data: patent US5656452A, “NF-ATp, ' a T lymphocyte DNA-binding protein” (President and Fellows of Harvard College, priority 1993, dated 1997)
# T1: NF-ATp XS (464-aa recombinant fragment of murine NF-ATp) (Mus musculus, UniProt Q60591 SEQ:226-689)
# T1 chain: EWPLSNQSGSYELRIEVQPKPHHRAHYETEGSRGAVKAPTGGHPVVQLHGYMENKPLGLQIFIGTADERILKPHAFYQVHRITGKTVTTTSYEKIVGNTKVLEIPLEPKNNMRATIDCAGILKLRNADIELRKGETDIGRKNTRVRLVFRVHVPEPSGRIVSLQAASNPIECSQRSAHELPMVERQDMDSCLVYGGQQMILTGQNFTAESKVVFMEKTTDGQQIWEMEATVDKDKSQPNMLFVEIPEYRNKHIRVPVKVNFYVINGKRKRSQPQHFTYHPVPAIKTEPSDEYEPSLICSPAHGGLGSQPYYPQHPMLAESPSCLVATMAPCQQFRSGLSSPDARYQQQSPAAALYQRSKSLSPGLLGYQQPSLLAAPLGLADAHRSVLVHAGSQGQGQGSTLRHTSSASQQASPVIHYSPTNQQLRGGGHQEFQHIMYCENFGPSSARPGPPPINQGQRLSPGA
# T2: NF-ATp (purified from Cl.7W2 T cells) (Mus musculus, UniProt Q60591 SEQ:1-890)
# T2 chain: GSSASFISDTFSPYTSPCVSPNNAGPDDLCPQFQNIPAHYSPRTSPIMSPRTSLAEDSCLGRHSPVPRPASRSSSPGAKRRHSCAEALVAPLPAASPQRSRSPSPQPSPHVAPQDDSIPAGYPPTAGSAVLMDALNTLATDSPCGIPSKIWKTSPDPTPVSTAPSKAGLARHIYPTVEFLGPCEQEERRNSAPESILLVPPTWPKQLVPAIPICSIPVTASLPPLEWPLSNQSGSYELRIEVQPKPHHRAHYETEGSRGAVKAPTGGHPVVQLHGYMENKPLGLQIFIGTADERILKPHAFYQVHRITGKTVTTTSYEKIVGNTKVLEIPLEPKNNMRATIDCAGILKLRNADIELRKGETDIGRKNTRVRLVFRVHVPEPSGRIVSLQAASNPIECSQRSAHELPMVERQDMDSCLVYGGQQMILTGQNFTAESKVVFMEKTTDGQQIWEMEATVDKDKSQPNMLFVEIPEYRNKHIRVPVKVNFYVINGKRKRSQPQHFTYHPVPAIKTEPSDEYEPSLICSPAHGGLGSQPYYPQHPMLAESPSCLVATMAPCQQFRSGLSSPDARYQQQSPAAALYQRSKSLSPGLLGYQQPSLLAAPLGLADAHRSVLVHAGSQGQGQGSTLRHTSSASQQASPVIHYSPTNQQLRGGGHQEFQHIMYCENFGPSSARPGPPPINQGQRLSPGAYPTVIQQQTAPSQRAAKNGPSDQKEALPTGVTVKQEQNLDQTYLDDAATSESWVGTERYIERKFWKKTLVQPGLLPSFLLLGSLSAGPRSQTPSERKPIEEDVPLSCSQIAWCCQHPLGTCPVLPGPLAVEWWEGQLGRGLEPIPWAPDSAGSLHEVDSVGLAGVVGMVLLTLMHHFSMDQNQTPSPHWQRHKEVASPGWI
# B1: M1 (dsDNA)
# DNA 1: GCCCAAAGAGGAAAATTTGTTTATATCAG
# DNA 2: CTGATATAAACAAATTTTCCTCTTTGGGC
# B2: NF-AT oligonucleotide (distal NF-AT site, murine IL-2 promoter) (dsDNA)
# DNA 1: GCCCAAAGAGGAAAATTTGTTTCATACAG
# DNA 2: CTGTATGAAACAAATTTTCCTCTTTGGGC
# B3: M3 (dsDNA)
# DNA 1: GCCCAAAGACCTTAATTTGTTTCATACAG
# DNA 2: CTGTATGAAACAAATTAAGGTCTTTGGGC
# Legend:
# [1] = molecular target: T1, NF-ATp XS (464-aa recombinant fragment …); experiment: competition; 200-fold excess competes as strongly as wild type
# Method: (§1) EMSAs were performed using 18 μl of renatured proteins in a 30 μl mix containing 4 mM Hepes, pH 7.4, 84 mM NaCl, 20 mM KCl, 0.08 mM EDTA, 9% glycerol, 0.7 mg/ml BSA, 17 μg/ml poly(dI:dC) and 0.125 ng of ^32P-labelled oligonucleotide. For competition assays, a 200-fold excess of unlabeled oligonucleotide was added to the reaction. The reactions were incubated for 15 minutes at room temperature followed by electrophoresis at 4° C. on 4% Tris/borate/EDTA/acrylamide gels. The NF-AT oligonucleotide used had the sequence GCCCAAAGAG-GAAAATTTGTTTCATACAG (SEQ ID NO:1), corresponding to the distal NF-AT site from the murine IL-2 promoter (nucleotides −295 to −267 relative to the transcription start site, (Serfling, E., Barthelmas, R., Pfeuffer, I., Schenk, B., Zarius, S., Swoboda, R., Mercurio, F., and Karin, M. (1989) *EMBO J.* 8, 465–473)). Oligonucleotides bearing mutations in the NF-AT site were as follows: M1, […] (SEQ ID NO:2); M2, […] […]
# (§2) Figure 12: FIG. 12 is a photograph of an EMSA gel. Binding of a recombinant fragment of NF-AT_p (NF-AT_pXS) to target DNA and association of the recombinant NF-AT_p fragment with Fos and Jun proteins was evaluated. The binding of the recombinant fragment of murine NF-AT_p to the distal NF-AT site of the murine IL-2 promoter was assessed by EMSA in the presence or absence of a 200-fold excess of unlabelled competitor oligonucleotides as shown in Lane 1–5. […]
# c-Fos + c-Jun = c-Fos + c-Jun (UniProt P12841;P17325 P12841:1-380,P17325:1-334); experiment: EMSA; no NF-ATp present; conditions: tags: full-length; label: 32P
# Method: (§3) Figure 12: FIG. 12 is a photograph of an EMSA gel. Binding of a recombinant fragment of NF-AT_p (NF-AT_pXS) to target DNA and association of the recombinant NF-AT_p fragment with Fos and Jun proteins was evaluated. The binding of the recombinant fragment of murine NF-AT_p to the distal NF-AT site of the murine IL-2 promoter was assessed by EMSA in the presence or absence of a 200-fold excess of unlabelled competitor oligonucleotides as shown in Lane 1–5. The arrows indicate two DNA-protein complexes formed with NF-AT_pXS. Full-length recombinant c-Fos and c-Jun proteins were included in the same binding reactions, as shown in Lanes 7–9. The open arrows indicate Jun—Jun-NF-AT_pXS complexes, while the closed arrows indicate Fos-Jun-NF-AT_pXS complexes.
# [2] = molecular target: T2, NF-ATp (purified from Cl.7W2 T cells); experiment: EMSA; purified 120 kDa protein, renatured from gel; conditions: tags: native; label: 32P
# Method: EMSAs were performed using 18 μl of renatured proteins in a 30 μl mix containing 4 mM Hepes, pH 7.4, 84 mM NaCl, 20 mM KCl, 0.08 mM EDTA, 9% glycerol, 0.7 mg/ml BSA, 17 μg/ml poly(dI:dC) and 0.125 ng of ^32P-labelled oligonucleotide. For competition assays, a 200-fold excess of unlabeled oligonucleotide was added to the reaction. The reactions were incubated for 15 minutes at room temperature followed by electrophoresis at 4° C. on 4% Tris/borate/EDTA/acrylamide gels. The NF-AT oligonucleotide used had the sequence GCCCAAAGAG-GAAAATTTGTTTCATACAG (SEQ ID NO:1), corresponding to the distal NF-AT site from the murine IL-2 promoter (nucleotides −295 to −267 relative to the transcription start site, (Serfling, E., Barthelmas, R., Pfeuffer, I., Schenk, B., Zarius, S., Swoboda, R., Mercurio, F., and Karin, M. (1989) *EMBO J.* 8, 465–473)). Oligonucleotides bearing mutations in the NF-AT site were as follows: M1, […] (SEQ ID NO:2); M2, […] (SEQ ID NO:3); M3, […] […]
# Figure 8: FIG. 8 is a photograph of an EMSA gel showing an analysis of NF-AT_p by renaturation of NF-AT_p activity following purification of the protein using SDS-polyacrylamide gel electrophoresis. […] After electrophoresis, the gel was sliced, proteins were eluted from gel slices and renatured, and the fractionated proteins were evaluated in an EMSA for their ability to bind to the NF-AT site of the murine IL-2 promoter.
# [3] = molecular target: NF-ATp (T cell) + c-Fos + c-Jun (UniProt Q60591;P12841;P17325 Q60591:1-927,P12841:1-380,P17325:1-334); experiment: EMSA; upper complex with partially purified NF-ATp; not seen with c-Fos only; conditions: tags: native NF-ATp with recombinant c-Fos and c-Jun; label: 32P
# Method: Figure 7: FIG. 7 is a photograph of an EMSA gel showing the results of an EMSA. […] Partially purified NF-AT_p was incubated with labeled oligonucleotide corresponding to the distal NF-AT site of the murine IL-2 promoter, either alone (lanes 1, 7, 13), with full length or truncated (T) recombinantly produced c-Fos and c-Jun proteins (lanes 2–5 and 8–11, respectively) or with an equivalent concentration of bovine serum albumin. Lane 5 contained 50% more c-Fos and c-Jun compared to lane 4. Lanes 11–13 contain half the amount of NF-AT_p compared to lanes 1–10. […] Bound complexes were separated from free probe by EMSA. The position of free probe, of the lower (NF-AT_p) complex and upper (NF-AT_p-Fos-Jun) complex are indicated.
# [4] = molecular target: NF-ATp XS + c-Fos + c-Jun (UniProt Q60591;P12841;P17325 Q60591:400-863,P12841:1-380,P17325:1-334); experiment: EMSA; Fos-Jun-NF-ATp complex; competed by AP-1 oligonucleotide; c-Fos alone does not associate; conditions: tags: His6 on NF-ATp XS; full-length c-Fos and c-Jun; label: 32P
# Method: as §3
# [5] = molecular target: T1, NF-ATp XS (464-aa recombinant fragment …); experiment: EMSA; two complexes; self-competed by 200-fold excess; methylation interference shows GGAA core required; conditions: label: 32P
# Method: as §1, §2
# NF-ATp XS + c-Jun = NF-ATp XS + c-Jun (UniProt Q60591;P17325 Q60591:400-863,P17325:1-334); experiment: EMSA; slower-migrating Jun-Jun-NF-ATp complex; conditions: tags: His6 on NF-ATp XS; full-length c-Jun; label: 32P
# Method: as §3
# [6] = molecular target: T1, NF-ATp XS (464-aa recombinant fragment …); experiment: competition; 200-fold excess does not compete
# Method: as §1, §2
# NF-ATp XS + c-Jun, sequence (P17325 whole entry, one chain of several): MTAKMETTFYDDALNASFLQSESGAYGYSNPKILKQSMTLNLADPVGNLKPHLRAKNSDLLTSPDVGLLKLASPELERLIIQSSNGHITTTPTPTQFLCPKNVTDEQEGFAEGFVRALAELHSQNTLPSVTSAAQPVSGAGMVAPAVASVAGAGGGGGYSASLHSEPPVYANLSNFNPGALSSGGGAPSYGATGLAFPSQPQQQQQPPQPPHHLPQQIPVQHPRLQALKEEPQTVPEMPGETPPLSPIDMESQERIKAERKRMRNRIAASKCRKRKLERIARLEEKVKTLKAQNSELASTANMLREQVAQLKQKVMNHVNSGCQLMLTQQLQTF
# NF-ATp (T cell) + c-Fos + c-Jun, sequence (Q60591 whole entry, chain 1 of 3, the tested form may be a part): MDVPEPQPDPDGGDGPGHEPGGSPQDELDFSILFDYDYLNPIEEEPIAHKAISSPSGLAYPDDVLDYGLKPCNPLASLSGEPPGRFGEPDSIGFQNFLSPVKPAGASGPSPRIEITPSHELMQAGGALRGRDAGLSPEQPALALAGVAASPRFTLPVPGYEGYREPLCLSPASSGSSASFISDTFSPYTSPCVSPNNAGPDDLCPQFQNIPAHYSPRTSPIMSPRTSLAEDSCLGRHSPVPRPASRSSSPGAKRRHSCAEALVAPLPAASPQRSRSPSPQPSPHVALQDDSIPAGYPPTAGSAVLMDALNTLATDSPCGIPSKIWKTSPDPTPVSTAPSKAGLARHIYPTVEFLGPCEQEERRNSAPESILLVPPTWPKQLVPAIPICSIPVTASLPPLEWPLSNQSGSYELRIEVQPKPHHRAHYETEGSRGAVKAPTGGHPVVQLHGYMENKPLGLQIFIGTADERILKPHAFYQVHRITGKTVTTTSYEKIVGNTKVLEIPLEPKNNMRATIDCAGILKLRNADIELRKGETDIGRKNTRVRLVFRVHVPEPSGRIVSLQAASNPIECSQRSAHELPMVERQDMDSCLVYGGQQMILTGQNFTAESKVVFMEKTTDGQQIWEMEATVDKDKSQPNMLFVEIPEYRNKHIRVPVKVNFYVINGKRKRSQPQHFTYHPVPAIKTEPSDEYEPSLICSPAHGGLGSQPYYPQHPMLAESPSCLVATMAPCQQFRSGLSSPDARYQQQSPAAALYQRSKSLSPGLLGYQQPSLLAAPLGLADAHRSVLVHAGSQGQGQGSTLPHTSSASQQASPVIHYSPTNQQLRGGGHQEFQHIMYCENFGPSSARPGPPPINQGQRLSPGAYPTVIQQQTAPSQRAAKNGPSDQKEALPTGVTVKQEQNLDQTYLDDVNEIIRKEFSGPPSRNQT
# NF-ATp (T cell) + c-Fos + c-Jun, sequence (P12841 whole entry, chain 2 of 3, the tested form may be a part): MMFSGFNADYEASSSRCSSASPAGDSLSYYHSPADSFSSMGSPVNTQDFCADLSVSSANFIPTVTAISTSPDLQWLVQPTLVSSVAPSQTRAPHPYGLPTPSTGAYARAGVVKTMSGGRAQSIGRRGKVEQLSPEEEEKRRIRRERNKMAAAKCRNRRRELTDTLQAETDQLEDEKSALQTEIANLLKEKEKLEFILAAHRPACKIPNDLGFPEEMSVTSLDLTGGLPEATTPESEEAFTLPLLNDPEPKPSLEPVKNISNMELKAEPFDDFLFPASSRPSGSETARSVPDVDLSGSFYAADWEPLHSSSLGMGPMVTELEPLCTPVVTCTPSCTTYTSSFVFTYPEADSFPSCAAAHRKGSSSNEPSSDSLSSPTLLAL
# NF-ATp (T cell) + c-Fos + c-Jun, sequence (P17325 whole entry, chain 3 of 3, the tested form may be a part): as the sequence (P17325 whole entry, one chain of several) above
# c-Fos + c-Jun, sequence (P12841 whole entry, chain 1 of 2, the tested form may be a part): as the sequence (P12841 whole entry, chain 2 of 3, the tested form may be a part) above
# c-Fos + c-Jun, sequence (P17325 whole entry, chain 2 of 2, the tested form may be a part): as the sequence (P17325 whole entry, one chain of several) above
# NF-ATp XS + c-Fos + c-Jun, sequence (P12841 whole entry, chain 2 of 2): as the sequence (P12841 whole entry, chain 2 of 3, the tested form may be a part) above
# NF-ATp XS + c-Fos + c-Jun, sequence (P17325 whole entry, chain 3 of 2): as the sequence (P17325 whole entry, one chain of several) above
binder,measurement,setting,value
B1,binding result,[1],binds
B2,binding result,c-Fos + c-Jun,no binding
same,binding result,[2],binds
same,binding result,[3],binds
same,binding result,[4],binds
same,binding result,[5],binds
same,binding result,NF-ATp XS + c-Jun,binds
B3,binding result,[6],no binding
